Patent US20130217572A1, “SPECIFIC DELIVERY OF AGROCHEMICALS” (VRIJE UNIVERSITEIT BRUSSEL, priority 2010, published 2013)
Substitutions are numbered along the chain they refer to.

How the values were obtained:
[1] = molecular target: unrelated antigens; test: VHH-coupled Uvitex microcapsules retained on wells coated with unrelated antigen; 4% surface coverage
[2] = molecular target: T1, potato lectin (Sigma) (potato, UniProt Q9S8M0 23-323); test: VHH-coupled Uvitex microcapsules on potato lectin-coated wells; 25-fold less microcapsules applied
T1 construct: Bought glycoprotein, coated on ELISA plates
T1 sequence (looked up): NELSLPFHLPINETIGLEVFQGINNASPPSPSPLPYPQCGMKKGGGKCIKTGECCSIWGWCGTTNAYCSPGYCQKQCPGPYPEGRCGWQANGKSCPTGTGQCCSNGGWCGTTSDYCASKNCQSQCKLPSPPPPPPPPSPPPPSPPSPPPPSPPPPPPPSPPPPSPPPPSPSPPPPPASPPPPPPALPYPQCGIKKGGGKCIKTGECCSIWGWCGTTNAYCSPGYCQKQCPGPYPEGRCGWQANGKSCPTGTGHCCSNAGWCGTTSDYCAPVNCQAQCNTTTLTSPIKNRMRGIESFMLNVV
Experimental: An ELISA-like assay was performed using high bind half area microplates (Greiner Bio-One) coated with 5 μg/well potato lectin. Control wells included blank wells or wells coated with unrelated antigens. Plates were washed three times with PBS with 0.05%-TWEEN®-20 and blocked with 5% skimmed milk in PBS for 1 to 2 hours. VHH-coupled Uvitex-containing microcapsules were diluted to appropriate densities in 1% skimmed milk in PBS with 0.05%-TWEEN®-20. Five-fold serial dilution series were prepared and allowed to bind to the surface to compare binding of microcapsules coupled with monovalent or bivalent VHH. Microcapsules were added to the antigen-coated or control wells and allowed to bind for 1 hour. Unbound microcapsules were removed by washing five times with PBS with 0.05%-TWEEN®-20. The bottoms of ELISA plate wells were analyzed for bound microcapsules on a macrozoom microscope system (Nikon). Microcapsules were counted using Volocity image analysis software (Perkin Elmer). A DAPI filter was used to visualize Uvitex microcapsules.
The surface area of microcapsules with coupled bivalent VHH was 15-fold above the surface area of blank microcapsules applied at this microcapsule density while the surface area of microcapsules with monovalent VHH was only six-fold above the surface area of blank microcapsules applied at this microcapsule density. […]

[3] = molecular target: unrelated antigens; test: VHH-coupled Uvitex microcapsules retained on wells coated with unrelated antigen; 20% surface coverage
[4] = molecular target: unrelated antigens; test: VHH-coupled Uvitex microcapsules retained on wells coated with unrelated antigen; 100% surface coverage
[5] = system: potato leaf surface; test: VHH binding to leaf discs (microscopy); set-up: species or system potato (variety Désirée); conditions: 5 μg/ml in PBS, anti-histidine Alexa-488 detection
Experimental: VHH binding to non-fixed leaf discs of potato (variety Désirée), black nightshade, grass, wheat or azalea was investigated. For comparison, binding of CBM3a to non-fixed leaf discs of potato (variety Désirée) was analyzed in parallel. Leaf discs were prepared by punching a fresh potato leaf with a 5 mm belt hole puncher tool. Leaf discs were put immediately in wells of a 96-well plate containing 200 μl per well 5% MPBS or PBS, and incubated for 30 minutes. Leaf discs were transferred to solutions containing 5 μg/ml VHH antibody fragment, respectively 5 μg/ml CBM3a in 2% MPBS or PBS and incubated for 60-90 minutes. Unbound VHH or CBM3a proteins were removed by washing three times with 2% MPBS or PBS. Bound VHH or CBM3a proteins were detected with incubation with monoclonal mouse anti-histidine antibodies directly conjugated with Alexa-488 fluorescent dye (Abd Serotec) in 1% MPBS for 1 hour. Unbound antibodies were removed by washing three times with PBS. Leaf discs were put on glass slides, covered with cover slips, and analyzed by microscopy or on a macrozoom microscope system (Nikon) or a SP5 confocal microscope system (Leica).

[6] = system: gum arabic; test: VHH binding to gum arabic in ELISA; set-up: species or system acacia tree
Experimental: Titration of VHH antibody fragments was performed on ELISA plates (Maxisorp, Nunc) coated with 100 μl per well 100 μg/ml gum arabic in 50 mM carbonate pH9.6. Plates were coated at 4° C. overnight and coating was continued at room temperature for 1 hour on the next day. Plates were washed three times with PBS/0.05%-TWEEN®-20 and blocked with 5% skimmed milk in PBS for 1 hour. Four-fold serial dilutions of purified VHH antibody fragments were prepared in 1% MPBS/0.05%-TWEEN®-20 in polypropylene 96-well plates. Antibody concentrations ranged from 3 μg/ml to 12 ng/ml. Antibody dilutions were transferred to the gum arabic-coated plates and VHH antibody fragments were allowed to bind for 1 hour at room temperature. Bound VHH were detected with sequential incubations with monoclonal mouse anti-histidine antibodies (Abd Serotec) and rabbit anti-mouse IgG whole molecule antibodies conjugated with alkaline phosphatase (RaM/AP) (Sigma) in 1% MPBS/0.05%-TWEEN®-20. Unbound antibodies were removed by washing three times with PBS/0.05%-TWEEN®-20 after each antibody incubation. The plates were washed an additional two times with PBS and 100 μl pNPP disodium hexahydrate substrate (Sigma) was added to each well. The absorbance at 405 nm was measured and plotted as function of antibody concentration (see Table 1).

[7] = molecular target: T2, potato lectin (Solanum tuberosum, UniProt Q9S8M0); test: VHH binding to potato lectin in ELISA; conditions: blank wells; VHH 3 μg/ml
T2 sequence (Q9S8M0 23-323): T1 sequence (looked up)
Experimental: (§1) ELISA plates (Maxisorp, Nunc) coated with 100 μl per well 100 μg/ml potato lectin (Sigma) in PBS were coated at 4° C. overnight and coating was continued at room temperature for 1 hour on the next day. Plates were washed three times with PBS/0.05%-TWEEN®-20 and blocked with 5% skimmed milk in PBS for 1 hour. VHH (3 μg/ml) were transferred to the potato lectin-coated plates and VHH antibody fragments were allowed to bind for 1 hour at room temperature. Bound VHH were detected with sequential incubations with monoclonal mouse anti-histidine antibodies (Abd Serotec) and rabbit anti-mouse IgG whole molecule antibodies conjugated with alkaline phosphatase (RaM/AP) (Sigma) in 1% MPBS/0.05%-TWEEN®-20. Unbound antibodies were removed by washing three times with PBS/0.05%-TWEEN®-20 after each antibody incubation. The plates were washed an additional two times with PBS and 100 μl pNPP disodium hexahydrate substrate (Sigma) was added to each well and the absorbance at 405 nm was measured (see Table 2).

[8] = molecular target: T1, potato lectin (Sigma); test: ELISA, potato lectin coated at 100 ug/ml, VHH at 3 ug/ml, anti-histidine detection
Experimental: as §1

[9] = Table 2, gum arabic coat, VHH 3 μg/ml
[10] = [VHH] 0.0117188 μg/ml (0.78125 nM), gum arabic 100 μg/ml
[11] = [VHH] 0.04688 μg/ml (3.125 nM), gum arabic 100 μg/ml
[12] = [VHH] 0.1875 μg/ml (12.5 nM), gum arabic 100 μg/ml
[13] = [VHH] 0.75 μg/ml (50 nM), gum arabic 100 μg/ml
[14] = [VHH] 3 μg/ml (200 nM), gum arabic 100 μg/ml
[15] = [VHH] 3 μg/ml (200 nM), no gum arabic coat (−)

B1: Bivalent VHH 3E6 (VHH)
chain: QVQLQESGGGLVQPGGTLSLSCAASGFNVRWYGMGWFRQAPGKEREGVACISALQETTAYADSVKGRFTLSRDNPKNTLSLQMNNLQPEDTGVYYCATTDCDDSSRMTYTSYLGQGTQVTVSSGGGGSGGGSQVQLQESGGGLVQPGGTLSLSCAASGFNVRWYGMGWFRQAPGKEREGVACISALQETTAYADSVKGRFTLSRDNPKNTLSLQMNNLQPEDTGVYYCATTDCDDSSRMTYTSYLGQGTQVTVSSAAAEQKLISEEDLNGAAHHHHHH
notes: Built from the general description of the bivalent constructs (two VHH in tandem); Tested covalently coupled to Uvitex microcapsules
- surface area of bound microcapsules [1]: 15
- fold of surface area above blank microcapsules [2]: 15 fold
- surface area of bound microcapsules [3]: 22.1
- surface area of bound microcapsules [4]: 45.7

B2: VHH 5D4 (VHH)
VHH: QVQLQESGGGLVQPGGSLRLSCAASGFDMRRFGIGWFRQVAGKEREGVSCSNVHDGTTYYTNDVKGRFTIVRDNTKNMLYLQMNKLRPEDTAVYSCATTDCEATAWGTYRGYFGQGTQVTVSS
notes: Hexahistidine-tagged
- binding to native potato leaf surface [5]: binding leaf surface, stomata, glandular trichomes, and leaf hairs
- binding to native potato leaf surface ([5]; listed as 5D4): clearly binding to trichomes, stomata and cuticle
- absorbance at 405 nm [6, 9]: 0.530
- absorbance at 405 nm [6, 10]: 0.087
- absorbance at 405 nm [6, 11]: 0.134
- absorbance at 405 nm [6, 12]: 0.378
- absorbance at 405 nm [6, 13]: 0.840
- absorbance at 405 nm [6, 14]: 1.280
- absorbance at 405 nm [6, 15]: 0.075
- absorbance at 405 nm [7]: 0.072
- absorbance at 405 nm [8]: 4

B3: VHH 5C4 (VHH)
VHH: QVQLQESGGGLVQPGGSLRLSCAASGFSLRYFGIGWFRQVAGKEREPVSCSNVRDGNTYYADSVKGRFTISRDNVRNTLYLQMNSLKPEDTAVYSCATTDCEATTWGTYRGYFGQGTQVTVSS
notes: Hexahistidine-tagged
- absorbance at 405 nm [6, 9]: 0.873
- absorbance at 405 nm [6, 10]: 0.166
- absorbance at 405 nm [6, 11]: 0.386
- absorbance at 405 nm [6, 12]: 1.036
- absorbance at 405 nm [6, 13]: 1.710
- absorbance at 405 nm [6, 14]: 2.010
- absorbance at 405 nm [6, 15]: 0.082
- absorbance at 405 nm [7]: 0.071
- absorbance at 405 nm [8]: 4

B4: VHH 5G5 (VHH)
VHH: B3 VHH with V40A, P47G, V48I, T78M, S85N, E89D
notes: Hexahistidine-tagged
- absorbance at 405 nm [6, 9]: 0.751
- absorbance at 405 nm [6, 10]: 0.125
- absorbance at 405 nm [6, 11]: 0.317
- absorbance at 405 nm [6, 12]: 0.906
- absorbance at 405 nm [6, 13]: 1.611
- absorbance at 405 nm [6, 14]: 1.966
- absorbance at 405 nm [6, 15]: 0.077
- absorbance at 405 nm [7]: 0.073
- absorbance at 405 nm [8]: 4

B5: VHH 7D2 (VHH)
VHH: QVQLQESGGGLVQPGRSLKVACAAAGFSLRYYGIGWFRQAPGKEREAVSCTSANDGSTYYRDSVRGRFTISRDDGKNTVYLQMNRLKPEDTAVYYCATTDCDATSWGTWINYYGQGTQVTVSS
notes: Hexahistidine-tagged
- absorbance at 405 nm [6, 9]: 0.274
- absorbance at 405 nm [6, 10]: 0.083
- absorbance at 405 nm [6, 11]: 0.136
- absorbance at 405 nm [6, 12]: 0.347
- absorbance at 405 nm [6, 13]: 0.906
- absorbance at 405 nm [6, 14]: 1.427
- absorbance at 405 nm [6, 15]: 0.074
- absorbance at 405 nm [7]: 0.072
- absorbance at 405 nm [8]: 4

B6: VHH5E5: plant-binding VHH, listed among SEQ ID NO:1-42 (protein, listed as Lama glama)
VHH: QVQLQESGGGLVQPGGSLTLSCTASGFAMRRFGIGWFRQVVGKEREGVSCSNVHDGSTYYANYVKGRFTIVRDDTKNMLYLHMNSLRAEDTGVYSCATTDCEATAWGTYRGYFGQGTQVTVSS
modifications: 5E5
- absorbance at 405 nm [6, 10]: 0.074
- absorbance at 405 nm [6, 11]: 0.088
- absorbance at 405 nm [6, 12]: 0.185
- absorbance at 405 nm [6, 13]: 0.569
- absorbance at 405 nm [6, 14]: 1.194
- absorbance at 405 nm [6, 15]: 0.073

B7: VHH7C2: plant-binding VHH, listed among SEQ ID NO:1-42 (protein, listed as Lama glama)
VHH: QVQLQESGGGLVQPGGSLRLSCAAFGFALANYGIGWFRQAPGKDRERVSCDSVDDGSTHYSNSVQGRFTIIRDNAKNTVFLQMNSLKAEDTAVYYCATTDCDATTWGTWINYRGQGTQVTVSS
modifications: 7C2
- absorbance at 405 nm [6, 10]: 0.088
- absorbance at 405 nm [6, 11]: 0.092
- absorbance at 405 nm [6, 12]: 0.090
- absorbance at 405 nm [6, 13]: 0.194
- absorbance at 405 nm [6, 14]: 0.461
- absorbance at 405 nm [6, 15]: 0.077

B8: VHH5F5: plant-binding VHH, listed among SEQ ID NO:1-42 (protein, listed as Lama glama)
VHH: QVQLQESGGGLVQPGGSLRLSCAASGFPLGLYGIGWFRQAPGKEREAVSCDSVDDGSTNYLDSVKGRFTISRDNAKNMVYLQMNSLKPEDTAVYYCATTDCDAKAWGTWTNYRGQGTQVTVSS
modifications: 5F5
- absorbance at 405 nm [6, 10]: 0.093
- absorbance at 405 nm [6, 11]: 0.100
- absorbance at 405 nm [6, 12]: 0.191
- absorbance at 405 nm [6, 13]: 0.476
- absorbance at 405 nm [6, 14]: 0.959
- absorbance at 405 nm [6, 15]: 0.090

B9: VHH7A2: plant-binding VHH, listed among SEQ ID NO:1-42 (protein, listed as Lama glama)
VHH: QVQLQESGGGSVHPGGSLTLSCLASGFSLSNYGMGWFRQAPGKEREAVSCTSVPNGHIYYAESVKGRFTIVRDNAGNSVYLQMNSLKPEDAANYFCATTDCEAAHWGTWVNYYGQGTQVTVSS
modifications: 7A2
- absorbance at 405 nm [6, 10]: 0.088
- absorbance at 405 nm [6, 11]: 0.101
- absorbance at 405 nm [6, 12]: 0.216
- absorbance at 405 nm [6, 13]: 0.677
- absorbance at 405 nm [6, 14]: 1.391
- absorbance at 405 nm [6, 15]: 0.075
